Measurements published in patent US20190153406.
Positions count from the first letter of the chain named. Names may count otherwise.

Assays:
[1] = biological target: IRS1 (insulin receptor substrate-1), species not stated
Sequence of IRS1 (insulin receptor substrate-1), species not stated (P35568 whole entry): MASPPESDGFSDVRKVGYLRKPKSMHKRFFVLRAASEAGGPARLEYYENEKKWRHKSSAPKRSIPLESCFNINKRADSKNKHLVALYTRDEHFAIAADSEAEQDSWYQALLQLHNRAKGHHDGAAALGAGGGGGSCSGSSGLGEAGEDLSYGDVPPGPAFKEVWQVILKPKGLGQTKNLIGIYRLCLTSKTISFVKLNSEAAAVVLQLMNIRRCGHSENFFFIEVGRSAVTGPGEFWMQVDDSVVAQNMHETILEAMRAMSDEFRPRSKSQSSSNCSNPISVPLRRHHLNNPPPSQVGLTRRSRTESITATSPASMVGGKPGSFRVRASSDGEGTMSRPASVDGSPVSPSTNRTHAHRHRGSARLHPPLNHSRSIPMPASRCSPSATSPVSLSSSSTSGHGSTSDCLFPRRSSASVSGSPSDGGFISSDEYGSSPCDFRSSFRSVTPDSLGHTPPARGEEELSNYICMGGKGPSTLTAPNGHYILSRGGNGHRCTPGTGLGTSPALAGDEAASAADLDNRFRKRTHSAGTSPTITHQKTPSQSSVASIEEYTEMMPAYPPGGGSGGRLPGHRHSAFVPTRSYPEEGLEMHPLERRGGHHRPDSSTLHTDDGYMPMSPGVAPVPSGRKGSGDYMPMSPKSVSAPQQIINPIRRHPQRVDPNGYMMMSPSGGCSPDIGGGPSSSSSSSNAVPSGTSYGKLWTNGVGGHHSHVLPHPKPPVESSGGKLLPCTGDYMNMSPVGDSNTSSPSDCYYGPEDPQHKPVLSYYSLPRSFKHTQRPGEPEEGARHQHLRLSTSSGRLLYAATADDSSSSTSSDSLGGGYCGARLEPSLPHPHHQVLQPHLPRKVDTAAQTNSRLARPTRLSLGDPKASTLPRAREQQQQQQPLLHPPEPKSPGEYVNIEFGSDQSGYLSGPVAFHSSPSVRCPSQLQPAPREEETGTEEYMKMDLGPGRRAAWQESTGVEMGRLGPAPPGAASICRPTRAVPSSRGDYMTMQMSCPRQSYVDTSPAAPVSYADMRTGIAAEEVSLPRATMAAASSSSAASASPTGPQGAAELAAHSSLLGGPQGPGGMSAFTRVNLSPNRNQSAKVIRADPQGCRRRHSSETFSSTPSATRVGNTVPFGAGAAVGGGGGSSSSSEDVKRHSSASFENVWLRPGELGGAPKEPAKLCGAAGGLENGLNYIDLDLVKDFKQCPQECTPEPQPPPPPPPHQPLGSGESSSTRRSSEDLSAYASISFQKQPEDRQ

B1: human wild-type MG53 (protein)
chain: MSAAPGLLHQELSCPLCLQLFDAPVTAECGHSFCRACLGRVAGEPAADGTVLCPCCQAPTRPQALSTNLQLARLVEGLAQVPQGHCEEHLDPLSIYCEQDRALVCGVCASLGSHRGHRLLPAAEAHARLKTQLPQQKLQLQEACMRKEKSVAVLEHQLVEVEETVRQFRGAVGEQLGKMRVFLAALEGSLDREAERVRGEAGVALRRELGSLNSYLEQLRQMEKVLEEVADKPQTEFLMKYCLVTSRLQKILAESPPPARLDIQLPIISDDFKFQVWRKMFRALMPALEELTFDPSSAHPSLVVSSSGRRVECSEQKAPPAGEDPRQFDKAVAVVAHQQLSEGEHYWEVDVGDKPRWALGVIAAEAPRRGRLHAVPSQGLWLLGLREGKILEAHVEAKEPRALRSPERRPTRIGLYLSFGDGVLSFYDASDADALVPLFAFHERLPRPVYPFFDVCWHDKGKNAQPLLLVGPEGAEA
- MG53-mediated substrate degradation, Western Blot, HEK293T co-expression (FIG. 17) [1]: human or mouse wild-type MG53 can significantly mediate IRS1 degradation

B2: human MG53 S255A mutant (protein)
chain: B1 chain with S255A
- degradation of IRS1, Western Blot, HEK293T co-expression (FIG. 17) [1]: human MG53 S255A mutant can only mediate about 10% degradation of IRS1

B3: mouse MG53 S255A mutant (protein)
chain: MSAAPGLLRQELSCPLCLQLFDAPVTAECGHSFCRACLIRVAGEPAADGTVACPCCQAPTRPQALSTNLQLSRLVEGLAQVPQGHCEEHLDPLSIYCEQDRTLVCGVCASLGSHRGHRLLPAAEAQARLKTQLPQQKMQLQEACMRKEKTVAVLEHQLVEVEETVRQFRGAVGEQLGKMRMFLAALESSLDREAERVRGDAGVALRRELSSLNSYLEQLRQMEKVLEEVADKPQTEFLMKFCLVTSRLQKILSEAPPPARLDIQLPVISDDFKFQVWKKMFRALMPALEELTFDPSSAHPSLVVSSSGRRVECSDQKAPPAGEDTRQFDKAVAVVAQQLLSQGEHYWEVEVGDKPRWALGVMAADASRRGRLHAVPSQGLWLLGLRDGKILEAHVEAKEPRALRTPERPPARIGLYLSFADGVLAFYDASNPDVLTPIFSFHERLPGPVYPIFDVCWHDKGKNAQPLLLVGPEQEQA
- degradation of IRS1, Western Blot, HEK293T co-expression (FIG. 16) [1]: mouse MG53 S255A mutant can only mediate about 40% degradation of IRS1
- degradation of IRβ, Western Blot, HEK293T co-expression (FIG. 16B) (insulin receptor IR): mouse MG53-D-RING truncated mutant and mouse MG53 S255A mutant can hardly mediate IRβ degradation
- degradation of precursor protein of IRβ, HEK293T co-expression (insulin receptor IR): mouse MG53-D-RING truncated mutant and mouse MG53 S255A mutant almost completely inhibited MG53-mediated degradation

B4: mouse wild-type MG53 (protein)
chain: B3 chain with A255S
- MG53-mediated substrate degradation, Western Blot, HEK293T co-expression (FIG. 16) [1]: human or mouse wild-type MG53 can significantly mediate IRS1 degradation
- degradation of IRβ, Western Blot, HEK293T co-expression (FIG. 16B) (insulin receptor IR): Mouse wild-type MG53 can mediate about 50% degradation of IRβ
- degradation of precursor protein of IRβ, HEK293T co-expression (insulin receptor IR): mouse wild-type MG53 can mediate the degradation of precursor protein of IRβ
